Measurements from article PMC4565748 (2015).

Biological target: C3b (Homo sapiens, UniProt P01024)
Test: AlphaAssay

C3b, sequence (P01024 23-667, chain 1 of 2): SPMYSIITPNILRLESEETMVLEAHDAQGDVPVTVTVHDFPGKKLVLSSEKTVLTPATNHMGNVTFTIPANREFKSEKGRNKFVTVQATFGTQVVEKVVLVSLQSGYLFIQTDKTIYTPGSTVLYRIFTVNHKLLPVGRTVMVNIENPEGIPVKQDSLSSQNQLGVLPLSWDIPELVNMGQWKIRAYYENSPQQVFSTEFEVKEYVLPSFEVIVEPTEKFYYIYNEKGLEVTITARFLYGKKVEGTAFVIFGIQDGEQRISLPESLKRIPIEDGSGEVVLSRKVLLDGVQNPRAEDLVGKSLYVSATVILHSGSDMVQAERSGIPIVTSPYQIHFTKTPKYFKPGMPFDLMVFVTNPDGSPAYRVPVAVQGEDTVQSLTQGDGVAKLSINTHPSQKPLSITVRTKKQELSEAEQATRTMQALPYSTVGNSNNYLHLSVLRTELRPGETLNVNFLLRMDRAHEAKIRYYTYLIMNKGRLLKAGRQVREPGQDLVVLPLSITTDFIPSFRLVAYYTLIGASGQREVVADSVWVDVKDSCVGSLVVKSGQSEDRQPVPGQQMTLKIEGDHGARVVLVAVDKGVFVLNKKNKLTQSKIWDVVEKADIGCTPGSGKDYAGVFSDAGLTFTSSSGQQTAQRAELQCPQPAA
C3b, sequence (P01024 749-1663, chain 2 of 2): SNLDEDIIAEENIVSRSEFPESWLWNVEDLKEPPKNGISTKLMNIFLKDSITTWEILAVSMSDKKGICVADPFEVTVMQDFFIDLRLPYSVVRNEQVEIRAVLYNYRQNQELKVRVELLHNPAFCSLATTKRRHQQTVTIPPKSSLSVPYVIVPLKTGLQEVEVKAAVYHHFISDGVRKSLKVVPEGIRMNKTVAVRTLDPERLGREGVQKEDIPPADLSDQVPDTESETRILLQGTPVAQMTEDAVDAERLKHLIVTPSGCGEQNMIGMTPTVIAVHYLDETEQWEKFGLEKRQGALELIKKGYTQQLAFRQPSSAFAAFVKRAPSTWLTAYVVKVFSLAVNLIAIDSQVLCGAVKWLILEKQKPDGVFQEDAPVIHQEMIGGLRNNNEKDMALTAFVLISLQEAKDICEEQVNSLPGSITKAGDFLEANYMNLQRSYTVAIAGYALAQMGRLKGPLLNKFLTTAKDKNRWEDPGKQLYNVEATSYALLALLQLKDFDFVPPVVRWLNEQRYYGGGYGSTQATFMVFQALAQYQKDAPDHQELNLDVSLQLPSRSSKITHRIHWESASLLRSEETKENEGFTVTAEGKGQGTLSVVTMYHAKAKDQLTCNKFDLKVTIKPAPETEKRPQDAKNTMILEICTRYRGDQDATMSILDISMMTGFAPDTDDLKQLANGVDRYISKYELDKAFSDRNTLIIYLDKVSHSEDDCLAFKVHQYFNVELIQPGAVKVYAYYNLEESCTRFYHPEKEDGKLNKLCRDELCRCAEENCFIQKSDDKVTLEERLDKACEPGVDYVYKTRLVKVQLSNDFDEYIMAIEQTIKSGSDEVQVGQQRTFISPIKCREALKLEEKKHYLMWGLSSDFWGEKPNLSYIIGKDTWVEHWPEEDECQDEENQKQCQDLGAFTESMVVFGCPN

B1: SCIN-A (protein)
chain: STSLPTSNEYQNEKLANELKSLLDELNVNELATGSLNTYYKRTIKISGQKAMYALKSKDFKKMSEAKYQLQKIYNEIDEALKSKY
Kd: 74 nM
